The values that follow come from article PMC10391570 (Cell Reports Methods, 2023).

Among the targets are Der p2 (Dermatophagoides pteronyssinus, UniProt P49278, biotin (Biotin Conjugation Kit, Lightning-Link)); Der f1 (Dermatophagoides farinae, UniProt P16311, biotin (Biotin Conjugation Kit, Lightning-Link)); Ole e1 (Olea europaea, UniProt P19963, biotin (Biotin Conjugation Kit, Lightning-Link)); Fel d1 (Felis catus, UniProt P30438;P30440); Der p1 (Dermatophagoides pteronyssinus, UniProt P08176, biotin (Biotin Conjugation Kit, Lightning-Link)).

What all share (test): ELISA

Der p2, sequence (P49278 18-146): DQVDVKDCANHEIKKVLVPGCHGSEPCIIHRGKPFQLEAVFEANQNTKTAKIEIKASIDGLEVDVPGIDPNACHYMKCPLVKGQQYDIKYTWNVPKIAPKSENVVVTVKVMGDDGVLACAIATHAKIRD
Der f1, sequence (P16311 99-321): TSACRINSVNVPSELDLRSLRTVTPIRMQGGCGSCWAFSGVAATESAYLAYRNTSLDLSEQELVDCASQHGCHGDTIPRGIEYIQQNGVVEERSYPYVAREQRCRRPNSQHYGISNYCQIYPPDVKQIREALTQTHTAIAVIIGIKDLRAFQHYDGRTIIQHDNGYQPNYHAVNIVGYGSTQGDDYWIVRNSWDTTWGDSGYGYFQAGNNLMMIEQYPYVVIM
Fel d1, sequence (P30438 23-92, chain 1 of 2): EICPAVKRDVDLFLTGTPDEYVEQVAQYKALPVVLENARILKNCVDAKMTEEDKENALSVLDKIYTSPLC
Fel d1, sequence (P30440 18-109, chain 2 of 2): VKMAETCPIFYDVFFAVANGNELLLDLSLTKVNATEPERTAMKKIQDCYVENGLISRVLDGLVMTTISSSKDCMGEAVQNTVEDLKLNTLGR
Der p1, sequence (P08176 99-320): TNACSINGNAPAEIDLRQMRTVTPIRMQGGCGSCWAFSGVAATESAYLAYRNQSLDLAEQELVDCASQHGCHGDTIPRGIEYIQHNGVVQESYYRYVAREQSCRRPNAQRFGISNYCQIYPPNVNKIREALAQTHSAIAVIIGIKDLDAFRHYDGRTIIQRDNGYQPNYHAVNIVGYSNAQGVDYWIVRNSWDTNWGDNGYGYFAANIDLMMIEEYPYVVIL

B1: IgE mAb 21_2 (antibody, V domains shown)
VH: QVQLQQSGPELVKPGASVKISCKAPGNAFSYSWMNWVKQRPGKGLEWVGRIYPGDGDTNYNGKFMGKATLTADKSSNTAYIQLSSLTSEDSAVYFCARSGGGTLYWYFDVWGTGTTVTVSS
VL: DIVMTQSPSSLALSVGQKVTMNCRSSQSLLNSFNQKNYLAWFQQKPGQSPRLLIYFASTRESGVPDRFIGSGSGTDFTLTISSVQAEDLADYFCQQHYNTPLTFGAGTTLELK
As for B1, the binding result with Der p2 is “binds”.

B2: IgE mAb1_2 (antibody, V domains shown)
VH: QIQLVQSGPELKKPGETVKISCKASGYTFTTYGMSWVKQAPGKGLKWMGWINTYSGVPTYADDFKGRFVFSLETSASTAYLQINNLKNEDTATYFCARAYYYGSSYLIWYFDVWGTGTTVTVSS
VL: NIVLTQSPASLAVSLGQRATISCRASESVDSYGNSFMHWYQQKPGQPPKLLIYLASNLESGVPARFSGSGSRTDFTLTIDPVEADDAATYYCQQNNEDPYTFGGGTKLEIK
Turning to B2, the binding result in the experiment with Der f1 was “binds”.

B3: IgE monoclonal antibody mAb12_2 (antibody, V domains shown)
VH: QAYLQQSGAELVRPGASVKMSCKASGYTFISYNMHWVKQTRRQGLEWIGAIYPGNGDTSYNQKFKGKATLTVDKSSSTAYMQLSSLTSEDSAVYFCARWDYYGSSYGAYWGQGTLVTVSA
VL: DIQMTQSPASLSVSVGETVTITCRASENIYSNLAWYQQKQGKSPQLLVYAATNLADGVPSRFSGSGSGTQYSLKINSLQSEDFGSYYCQHFWGTPWTFGGGTKLEIK
Consider B3, for which the binding result with Ole e1 is given as “binds”; in the experiment with Fel d1 it was “no binding”; in the experiment with Der p1, “binds”; in the experiment with Der p2, “binds”; in the experiment with Der f1 it was “binds”.

B4: IgE mAb 8_2 (antibody, V domains shown)
VH: QVLLKESGPGLVAPSQSLSITCTVSGFSLTSYGVSWVRQPPGKGLEWLGVIWGDGNTDYHSALISRLSIRKDNSKSQVFLKLNSLQTDDTATYYCAIGSPFAYWGQGTLVTVSA
VL: DVLMTQTPLSLPVSLGDQVSISCRSSQNIVHSTGNTYLEWYLQKPGQSPKLLIFKVSNRLSGVPDRFSGSGSGTDFTLNISRVEAADLGIYSCFQGSHVPFTFGSGTKLEIK
In the case of B4, the binding result with Der p2 was “binds”.
